# The supplement of paper PMC10201428
# ± gives the standard deviation of the averaged measurements.
# What was measured:
# [1] = system: VchCAST RNA-guided transposition machinery (E. coli BL21(DE3) host, lacZ target); assay: relative integration efficiency (T-RL orientation) vs wild-type transposon end (log2 (normalized fold change)); transposon end mutated: right end (5 bp flank + 75 bp right end); higher = more efficient transposition
# Protocol: (§1)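 Pooled, barcoded VchCAST (Tn6677) mini-transposon donor libraries; each variable transposon-end sequence sits in a fixed pDonor mini-transposon context (10-bp barcode and cargo not included). Left- or right-end libraries were co-transformed with pEffector (TniQ-Cascade, TnsABC, lacZ crRNA, T7, 0.1 mM IPTG) into E. coli BL21(DE3) and grown 18 h at 37 C. T-LR and T-RL junction amplicons were sequenced; output/input barcode fold change was normalised to the mean of four wild-type barcodes and log2-transformed. Two biological replicates; zero-count/undetected variants carry floor values (-10 / -15), censored here. Barcode uncoupling by PCR recombination adds noise.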
# [2] = system: VchCAST RNA-guided transposition machinery (E. coli BL21(DE3) host, lacZ target); assay: relative integration efficiency (T-LR orientation) vs wild-type transposon end (log2 (normalized fold change)); transposon end mutated: right end (5 bp flank + 75 bp right end); higher = more efficient transposition
# Protocol: as §1
sequence,measurement,setting,value
ACATTAGTTCATACAACCATAAAATGATAATTACACCCATAAATTCATCATTATCACACCCAATTTAACTATAACGCTCTGATCATAGTCAGACCAACATTGCTACGACCCGTATTCGCACCGACAC,relative integration efficiency (log2),[1],-7.69 ± 0.13
same,relative integration efficiency (log2),[2],-5.32 ± 0.75
ACATTAGTTGATACAACCATAAAATGATAATTACACCCATAAATGGATAATTATCACACCCAATTTAACTATAACGCTCTGATCATAGTCAGACCAACATTGCTACGACCCGTATTCGCACCGACAC,relative integration efficiency (log2),[1],-6.45 ± 0.32
same,relative integration efficiency (log2),[2],-4.68 ± 1.3
ACATTAGTTGATACAACCATAAAATGATAATTACACCCATAAATGGATCATTATCACACCCAATTTAACTATAACGCTCTGATCATAGTCAGACCAACATTGCTACGACCCGTATTCGCACCGACAC,relative integration efficiency (log2),[1],-6.02 ± 0.2
same,relative integration efficiency (log2),[2],-4.72 ± 0.67
ACATTAGTTGATACAACCATAAAATGATAATTACACCCATAAATTCATAATTATCACACCCAATTTAACTATAACGCTCTGATCATAGTCAGACCAACATTGCTACGACCCGTATTCGCACCGACAC,relative integration efficiency (log2),[1],-6.87 ± 0.4
same,relative integration efficiency (log2),[2],-4.45 ± 0.066
ACATTAGTTGATACAACCATAAAATGATAATTACACCCATAAATTCATCATTATCACACCCAATTTAACTATAACGCTCTGATCATAGTCAGACCAACATTGCTACGACCCGTATTCGCACCGACAC,relative integration efficiency (log2),[1],-7.83 ± 0.12
same,relative integration efficiency (log2),[2],-4.99 ± 0.51
ACATTAGTTGATACAACCATAAAATGATAATTACACCCATAAATTGATCATTATCACACCCAATTTAACTATAACGCTCTGATCATAGTCAGACCAACATTGCTACGACCCGTATTCGCACCGACAC,relative integration efficiency (log2),[1],-7.38 ± 0.13
same,relative integration efficiency (log2),[2],-5.7 ± 0.14
ACATTGGTCGATACAACCATAAAATGATAATTACACCCATAAATTCATAATTATCACACCCAATTTAACTATAACGCTCTGATCATAGTCAGACCAACATTGCTACGACCCGTATTCGCACCGACAC,relative integration efficiency (log2),[1],-7.939 ± 0.019
same,relative integration efficiency (log2),[2],-7.44 ± 1.2
ACATTGGTCGATACAACCATAAAATGATAATTACACCCATAAATTCATCATTATCACACCCAATTTAACTATAACGCTCTGATCATAGTCAGACCAACATTGCTACGACCCGTATTCGCACCGACAC,relative integration efficiency (log2),[1],-7.035 ± 0.062
same,relative integration efficiency (log2),[2],-5.19 ± 1.2
ACATTGGTCGATACAACCATAAAATGATAATTACACCCATAAATTGATAATTATCACACCCAATTTAACTATAACGCTCTGATCATAGTCAGACCAACATTGCTACGACCCGTATTCGCACCGACAC,relative integration efficiency (log2),[1],-7.79 ± 0.62
same,relative integration efficiency (log2),[2],-5.26 ± 0.85
ACATTGGTCGATACAACCATAAAATGATAATTACACCCATAAATTGATCATTATCACACCCAATTTAACTATAACGCTCTGATCATAGTCAGACCAACATTGCTACGACCCGTATTCGCACCGACAC,relative integration efficiency (log2),[1],-7.023 ± 0.019
same,relative integration efficiency (log2),[2],-5.922 ± 0.042
ACATTGGTGGATACAACCATAAAATGATAATTACACCCATAAATGGATAATTATCACACCCAATTTAACTATAACGCTCTGATCATAGTCAGACCAACATTGCTACGACCCGTATTCGCACCGACAC,relative integration efficiency (log2),[1],-7.53 ± 0.13
same,relative integration efficiency (log2),[2],-5.04 ± 0.46
ACATTGGTGGATACAACCATAAAATGATAATTACACCCATAAATGGATCATTATCACACCCAATTTAACTATAACGCTCTGATCATAGTCAGACCAACATTGCTACGACCCGTATTCGCACCGACAC,relative integration efficiency (log2),[1],-7.25 ± 0.2
same,relative integration efficiency (log2),[2],-6.75 ± 1
ACATTGGTGGATACAACCATAAAATGATAATTACACCCATAAATTCATAATTATCACACCCAATTTAACTATAACGCTCTGATCATAGTCAGACCAACATTGCTACGACCCGTATTCGCACCGACAC,relative integration efficiency (log2),[1],-6.19 ± 0.92
same,relative integration efficiency (log2),[2],-4.36 ± 0.31
ACATTGGTGGATACAACCATAAAATGATAATTACACCCATAAATTCATCATTATCACACCCAATTTAACTATAACGCTCTGATCATAGTCAGACCAACATTGCTACGACCCGTATTCGCACCGACAC,relative integration efficiency (log2),[1],-7.11 ± 0.38
same,relative integration efficiency (log2),[2],-4.79 ± 0.16
ACATTGGTGGATACAACCATAAAATGATAATTACACCCATAAATTGATCATTATCACACCCAATTTAACTATAACGCTCTGATCATAGTCAGACCAACATTGCTACGACCCGTATTCGCACCGACAC,relative integration efficiency (log2),[1],-6.97 ± 0.42
same,relative integration efficiency (log2),[2],-6.549 ± 0.042
